Data published in paper PMC10194908 (2023).

T1: Recombinant NS1 from DENV-4-Dominica/814669/1981 (dengue virus serotype 4 …, UniProt P09866 775-1126)
T1 chain: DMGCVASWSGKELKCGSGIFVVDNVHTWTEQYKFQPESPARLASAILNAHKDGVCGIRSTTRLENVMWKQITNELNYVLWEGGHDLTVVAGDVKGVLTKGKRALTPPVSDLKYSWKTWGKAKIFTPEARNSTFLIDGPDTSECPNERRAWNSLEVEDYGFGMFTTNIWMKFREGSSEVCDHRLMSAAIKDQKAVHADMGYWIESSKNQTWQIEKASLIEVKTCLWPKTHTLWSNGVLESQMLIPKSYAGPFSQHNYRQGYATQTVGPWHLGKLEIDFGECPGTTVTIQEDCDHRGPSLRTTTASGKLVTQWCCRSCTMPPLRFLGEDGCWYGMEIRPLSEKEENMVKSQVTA

T2: Recombinant NS1 from DENV-3-Sri Lanka D3/H/IMTSSA-SRI/2000/1266 (dengue virus serotype 3 (Sri Lanka …, UniProt Q6YMS4 774-1125))
T2 chain: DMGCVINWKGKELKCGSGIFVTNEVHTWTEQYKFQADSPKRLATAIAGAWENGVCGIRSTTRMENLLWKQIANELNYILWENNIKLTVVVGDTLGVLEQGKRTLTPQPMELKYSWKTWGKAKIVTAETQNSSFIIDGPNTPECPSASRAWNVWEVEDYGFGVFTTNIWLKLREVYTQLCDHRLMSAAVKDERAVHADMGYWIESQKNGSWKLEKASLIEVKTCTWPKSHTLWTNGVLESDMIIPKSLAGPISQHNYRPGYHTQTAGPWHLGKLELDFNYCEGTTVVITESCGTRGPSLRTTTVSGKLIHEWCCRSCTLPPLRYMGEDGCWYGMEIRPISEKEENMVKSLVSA

B1: Recombinant NS1 from DENV-1-Nauru/Western Pacific/1974 (natural protein)
chain: DSGCVINWKGRELKCGSGIFVTNEVHTWTEQYKFQADSPKRLSAAIGKAWEEGVCGIRSATRLENIMWKQISNELNHILLENDMKFTVVVGDVSGILAQGKKMIRPQPMEHKYSWKSWGKAKIIGADVQNTTFIIDGPNTPECPDNQRAWNIWEVEDYGFGIFTTNIWLKLRDSYTQVCDHRLMSAAIKDSKAVHADMGYWIESEKNETWKLARASFIEVKTCIWPKSHTLWSNGVLESEMIIPKIYGGPISQHNYRPGYFTQTAGPWHLGKLELDFDLCEGTTVVVDEHCGNRGPSLRTTTVTGKTIHEWCCRSCTLPPLRFKGEDGCWYGMEIRPVKEKEENLVKSMVSA
B2: A2 (antibody, V domains shown)
VH: QVQLQESGGGVVQPGRSLRLFCAASGFTFSAFSTYAIHWVRQAPGKGLEWVAVISYDANNKYYADSVKGRFTISRDNFKSTLFLQMNSLRAEDTAVYYCARDRSDSGYDSYYYYYGMDVWGQGTTVTVSS
VL: QSVVTQPPSVSAAPGQKVTISCSGSSSNIGRNYVSWYQHLPGTAPKLLIYDNNKRRSGIPDRFSGSKSDTTATLGITGLQTVDEADYYCGSWDNSLSAYVFGTGTKVTV
B3: D8 (antibody, V domains shown)
VH: QVQLQESGPGLVKPSETLPLTCTVSGGSISNNGFYWGWIRQPPGKGLEWIGNIYYRGSTYYNPSLNSRVTISVDTSKNQFSLQLNSVTAADTAVYYCARLGIQLWFAIDYWGQGTLVTVSS
VL: SVLTQPPAVSVALGQTVRITCQGDSLRSSYASWYQQKPGQAPVLIFYAKNNRPSGIPDRFSGSSSGNTASLTITGAQAEDEADYYCYSRDSSGNLWVFGGGTKLTVL
B4: D6 (antibody, V domains shown)
VH: EVQLVQSGGGLVQPGRSLRLSCAASGFTFQDYAMHWVRQAPGKGLEWVSGIGRDSGTIDYADSVKGRFTISRDNAKNSLYLQMNSLRAEDTALYYCAKISNGYRPDNWGQGTLVTVSS
VL: VLTQPPSVSVSPGQTARITCSGDVLAKRYARWFQQKPGQAPVVVIYKDSERPSGIPERLSGSSSGTTVTLTISGAQVEDEADYYCYCAADNNVVFGGGTKLTVL

Experiments:
Experiment in all cases: BLI
Den3 = target: Den3
[1] = target: T1, Recombinant NS1 from …
[2] = target: T2, Recombinant NS1 from DENV-3-Sri Lanka …
[3] = target: T3, Recombinant NS1 from DENV-2-Thailand/16681/84 (dengue virus serotype 2 …, UniProt P29990 776-1127)
[4] = target: B1
[5] = target: T1, Recombinant NS1 from …
[6] = target: T2, Recombinant NS1 from DENV-3-Sri Lanka …
[7] = target: T3, Recombinant NS1 from …; remark: listed apart in the source
[8] = target: B1

T3 sequence (P29990 776-1127): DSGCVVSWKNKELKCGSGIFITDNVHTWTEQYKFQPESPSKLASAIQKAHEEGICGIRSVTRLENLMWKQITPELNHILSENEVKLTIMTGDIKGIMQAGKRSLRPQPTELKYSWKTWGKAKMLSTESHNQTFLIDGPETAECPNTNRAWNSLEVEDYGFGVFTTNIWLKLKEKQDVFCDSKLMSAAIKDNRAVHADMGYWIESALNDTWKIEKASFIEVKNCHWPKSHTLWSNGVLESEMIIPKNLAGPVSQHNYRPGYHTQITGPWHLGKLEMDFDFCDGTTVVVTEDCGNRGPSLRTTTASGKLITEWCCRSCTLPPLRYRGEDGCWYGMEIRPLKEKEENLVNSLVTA

Binder | Kd (Den3) [nM] | koff (Den3) [s⁻¹] | koff [1] [s⁻¹] | koff [2] [s⁻¹] | koff [3] [s⁻¹] | koff [4] [s⁻¹] | Kd [5] [nM] | Kd [6] [nM] | Kd [7] [nM] | Kd [8] [nM]
B1 | < 0.001 | < 1e-07 | – | – | – | – | – | – | – | –
B2 | – | – | 0.0016 | < 1e-07 | < 1e-07 | 0.000221 | 4.41 | < 0.001 | < 0.001 | 1.61
B3 | – | – | < 1e-07 | 6.68e-05 | < 1e-07 | 9.79e-05 | < 0.001 | 0.569 | < 0.001 | 1.06
B4 | – | – | 5.9e-05 | – | < 1e-07 | 0.000344 | 0.17 | – | < 0.001 | 2.67
